The labels stand for the following.
T1: human recombinant GIP receptor (human, UniProt P48546 22-466)
T1 construct: whole, on cells; Assayed as washed membranes of CHO-K1 cells expressing the receptor; also called hGIP receptor
T1 sequence (looked up): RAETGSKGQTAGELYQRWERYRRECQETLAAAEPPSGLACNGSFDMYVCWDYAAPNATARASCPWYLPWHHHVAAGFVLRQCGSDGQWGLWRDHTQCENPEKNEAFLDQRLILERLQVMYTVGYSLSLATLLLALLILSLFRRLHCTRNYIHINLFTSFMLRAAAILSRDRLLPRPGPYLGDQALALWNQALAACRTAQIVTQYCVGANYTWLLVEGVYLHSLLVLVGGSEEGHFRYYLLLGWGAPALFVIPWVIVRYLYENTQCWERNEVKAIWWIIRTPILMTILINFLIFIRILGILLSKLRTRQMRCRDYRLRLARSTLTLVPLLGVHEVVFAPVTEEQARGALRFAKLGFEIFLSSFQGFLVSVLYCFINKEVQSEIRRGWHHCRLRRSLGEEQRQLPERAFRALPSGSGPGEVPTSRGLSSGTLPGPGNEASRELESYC

What is called Ki is a measure of affinity in units of concentration, obtained from inhibition or displacement.

This assay addresses T1, human recombinant GIP receptor. Put plainly: displacement of [125I]GIP, membranes of CHO-K1 cells expressing human GIP receptor. The protocol: Membranes for in vitro receptor binding assays were prepared by homogenizing the CHO—K1 clonal cells expressing the human recombinant GIP receptor, with a Brinkman Polytron (setting 6, 15 sec), in ice-cold 50 mM Tris-HCl and then subjected to two centrifugations at 39,000 g for 10 minutes, with a resuspension in fresh buffer in between. For the assay, aliquots of the washed membrane preparations were incubated (100 minutes at 25° C. with 0.05 nM [¹²⁵1]GIP (2200 Ci/mmol) in 50 mM Tris-HCl, 0.1 mg/ml bacitracin, and 0.1% BSA. The final assay volume was 0.5 ml. The incubations were terminated by rapid filtration through GF/C filters (pre-soaked in 0.5% polyethylenimine) using a Brandel filtration manifold. Each tube and filter were then washed three times with 5-ml aliquots of ice-cold buffer.
Specific binding was defined as the total radioligand bound minus that bound in the presence of 1000 nM GIP.
Background: In a radioligand displacement assay an active substance lowers the binding of a labelled ligand.
As to HXEGTFISDYSIXXDKIHQQDFVNWLLAQKGKKNDWKHNITQ (Aib at 2 and 13; Nle at 14) [(His^1, Aib^2, 13, Nle^14)hGIP(1-42)-OH], the Ki worked out at 3.33 nM. For XXEGTFISDYXIAMDKIHQQDFVNWLLAQKGKKNDWKHNIXQ (3-Pal at 1; Aib at 2; A5c at 11 and 41) [(3-Pal^1, Aib^2, A5c^11, 41)hGIP(1-42)-OH] the value was 9.75 nM; for XXEGTFISDYXIAMDKIHQQDFVNWLLAQKGKKNDWKHNIXQ (4-Pal at 1; Aib at 2; A5c at 11 and 41) [(4-Pal^1, Aib^2, A5c^11, 41)hGIP(1-42)-OH], 8.14 nM; for XXEGTFISDYXIAXDKIHQQDFVNWLLAQKGKKNDWKHNITQ (hTyr at 1; Aib at 2; A5c at 11; Nle at 14) [(hTyr^1, Aib^2, A5c^11, Nle^14)hGIP(1-42)-OH], 77.3 nM. Next, FXEGTFISDYXIAXDKIHQQDFVNWLLAQKGKKNDWKHNITQ (3F-Phe at 1; Aib at 2; A5c at 11; Nle at 14) [(3F-Phe^1, Aib^2, A5c^11, Nle^14)hGIP(1-42)-OH]: 2.7 nM. Consider YXEGTFISDYXIAMDKIHQQDFVNWLLAQKGKKNDWKHNIXQ (3MeO-Tyr at 1; Aib at 2; A5c at 11 and 41) [(3MeO-Tyr^1, Aib^2, A5c^11, 41)hGIP(1-42)-OH], for which the Ki is 1.24 nM. For XXEGTFISDYXIAMDKIHQQDFVNWLLAQKGKKNDWKHNIXQ (3Thi at 1; Aib at 2; A5c at 11 and 41) [(3Thi^1, Aib^2, A5c^11, 41)hGIP(1-42)-OH] the value was 7.05 nM; for FXEGTFISDYXIAXDKIHQQDFVNWLLAQKGKKNDWKHNITQ (4NH2CH2-Phe at 1; Aib at 2; A5c at 11; Nle at 14) [(4NH2CH2-Phe^1, Aib^2, A5c^11, Nle^14)hGIP(1-42)-OH], 95 nM; for XXEGTFISDYXIAXDKIHQQDFVNWLLAQKGKKNDWKHNITQ (Cpa (4-Cl-phenylalanine) at 1; Aib at 2; A5c at 11; Nle at 14) [(Cpa^1, Aib^2, A5c^11, Nle^14)hGIP(1-42)-OH], 9.4 nM. For YXEGTFISDYXIAMDKIHQQDFVNWLLAQKGKKNDWKHNIXQ (Tyr(Ac) at 1; Aib at 2; A5c at 11 and 41) [[Tyr(Ac)^1, Aib^2, A5c^11, 41]hGIP(1-42)-OH] the value was 0.73 nM. Turning to YXEGTFISDYXIAMDKIHQQDFVNWLLAQKGKKNDWKHNIXQ (2,6Me-Tyr at 1; Aib at 2; A5c at 11 and 41) [(2,6Me-Tyr^1, Aib^2, A5c^11, 41)hGIP(1-42)-OH], the Ki is 1.03 nM.

Consider YXEGTFISDYXIAMDKIHQQDFVNWLLAQKGKKNDWKHNIXQ (Tyr(Me) at 1; Aib at 2; A5c at 11 and 41) [[Tyr(Me)^1, Aib^2, A5c^11, 41]hGIP(1-42)-OH], for which the Ki was 4.5 nM. For FXEGTFISDYXIAXDKIHQQDFVNWLLAQKGKKNDWKHNITQ (3,5F-Phe at 1; Aib at 2; A5c at 11; Nle at 14) [(3,5F-Phe^1, Aib^2, A5c^11, Nle^14)hGIP(1-42)-OH] the value was 26 nM; for FXEGTFISDYXIAXDKIHQQDFVNWLLAQKGKKNDWKHNITQ (4NH2-Phe at 1; Aib at 2; A5c at 11; Nle at 14) [(4NH2-Phe^1, Aib^2, A5c^11, Nle^14)hGIP(1-42)-OH], 3.4 nM. For YXEGTFISDYXIAMDKIHQQDFVNWLLAQKGKKNDWKHNIXQ (3OH-Tyr at 1; Aib at 2; A5c at 11 and 41) [(3OH-Tyr^1, Aib^2, A5c^11, 41)hGIP(1-42)-OH] the value was 6.69 nM; for YXEGTFISDYXIAMDKIHQQDFVNWLLAQKGKKNDWKHNIXQ (3NO2-Tyr at 1; Aib at 2; A5c at 11 and 41) [(3NO2-Tyr^1, Aib^2, A5c^11, 41)hGIP(1-42)-OH], 11.2 nM. For XXEGTFISDYXIAMDKIHQQDFVNWLLAQKGKKNDWKHNIXQ (Taz at 1; Aib at 2; A5c at 11 and 41) [(Taz^1, Aib^2, A5c^11, 41)hGIP(1-42)-OH] the value was 3.28 nM. In the case of FXEGTFISDYXIAXDKIHQQDFVNWLLAQKGKKNDWKHNITQ (3,4,5F-Phe at 1; Aib at 2; A5c at 11; Nle at 14) [(3,4,5F-Phe^1, Aib^2, A5c^11, Nle^14)hGIP(1-42)-OH], the Ki came out at 31.1 nM. As to FXEGTFISDYXIAXDKIHQQDFVNWLLAQKGKKNDWKHNITQ (3,4F-Phe at 1; Aib at 2; A5c at 11; Nle at 14) [(3,4F-Phe^1, Aib^2, A5c^11, Nle^14)hGIP(1-42)-OH], the Ki came out at 15.7 nM. Regarding YXEGTFISDYXIAXDKIHQQDFVNWLLAQKGKKNDWKHNITQ (3Br-Tyr at 1; Aib at 2; A5c at 11; Nle at 14) [(3Br-Tyr^1, Aib^2, A5c^11, Nle^14)hGIP(1-42)-OH], the Ki is 0.6 nM. For YXEGTFISDYSIXXDKIHQQDFVNWLLAQKGKKNDWKHNITQ (3,5Br-Tyr at 1; Aib at 2 and 13; Nle at 14) [(3,5Br-Tyr^1, Aib^2, 13, Nle^14)hGIP(1-42)-OH] the value was 4.26 nM; for YXEGTFISDYXIAXDKIHQQDFVNWLLAQKGKKNDWKHNITQ (3I-Tyr at 1; Aib at 2; A5c at 11; Nle at 14) [(3I-Tyr^1, Aib^2, A5c^11, Nle^14)hGIP(1-42)-OH], 5.03 nM. Next, HXEGTFISDYXIAXDKIHQQDFVNWLLAQKGKKNDWKHNITQ (Aib at 2; A5c at 11; Nle at 14) [(His^1, Aib^2, A5c^11, Nle^14)hGIP(1-42)-OH]: 3.18 nM; FXEGTFISDYXIAMDKIHQQDFVNWLLAQKGKKNDWKHNIXQ (3OH-Phe at 1; Aib at 2; A5c at 11 and 41) [(3OH-Phe^1, Aib^2, A5c^11, 41)hGIP(1-42)-OH]: 7.52 nM. YXEGTFISDYXIAXDKIHQQDFVNWLLAQKGKKNDWKHNITQ (3,5Br-Tyr at 1; Aib at 2; A5c at 11; Nle at 14) [(3,5Br-Tyr^1, Aib^2, A5c^11, Nle^14)hGIP(1-42)-OH]: the inhibition constant (Ki) was 21.8 nM.

These data come from US20150175665A1 (IPSEN PHARMA S A S, published 2015).
